Measurements as given in US20090291081A1 (AbbVie / Abbott, published 2009).
Numbering of substitutions follows the chain as printed.

T1: human IL-1α (human, UniProt P01583 113-271)
T1 sequence (looked up): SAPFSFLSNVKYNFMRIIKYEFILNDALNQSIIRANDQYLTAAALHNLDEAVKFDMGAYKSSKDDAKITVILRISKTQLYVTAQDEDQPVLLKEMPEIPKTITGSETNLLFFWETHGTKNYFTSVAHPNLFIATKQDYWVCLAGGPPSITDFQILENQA

B1: ABT1-99 (other)
VH: EVQLLESGGGLVQPGGSLRLSCAASGFTFGKYSMTWVRQAPGKGLEWVSVIDPWGHYTYYADSVKGRFTISRDNSKNTLYLQMNSLRAEDTAVYYCAKSVDATLLRRYFDYWGQGTLVTVSS
B2: ABT1-141-29 (other)
VL: DIQVTQSPSSLSASVGDRVTITCRASQWIQKQLAWYQLKPGKAPKLLIYSSSYLQSGVPSRFSGSGSGTDFTLTISSLQPEDFATYYCQQHLRVPFTFGQGTKVEIKR
B3: ABT1-141-32 (other)
VL: B2 VL with V4M, V19I, F96M
B4: ABT1-141-31 (other)
VL: B2 VL with V4M, L38Q, Y53W, F96M
B5: ABT1-141-562 (other)
VL: B2 VL with V4M, S26N, L38Q, Y53W, F96M
B6: ABT1-141-33 (other)
VL: B2 VL with V4M, Y53W, F96M
B7: ABT1-95-21 (other)
VL: DIQMTQSPSSLSASVGDRVTITCRASQPIVRNLRWYQQKPGKAPKLLIYSSSYLEPGVPSRFSGSGSGTDFTLTISSLQPEDFATYYCQQGYRWPVTFGQGTKVEIKR
notes: VK dAb
B8: ABT1-95-175 (other)
VL: B7 VL with Q27R, S50A, Y87H, Q89R
B9: ABT1-95-A3 (other)
VL: B7 VL with Q27K, I29G, L33M, S51V, Y87H, Q89L, V96P
B10: ABT1-95-A5 (other)
VL: B7 VL with Q27R, P28T, I29P, S51R, Y53F, Y87H, Q89L, V96P
B11: ABT1-95-A6 (other)
VL: B7 VL with Q27K, I29G, L33M, S50A, S51K, Y87H, Q89K, T97Q
B12: ABT1-95-179 (other)
VL: B7 VL with Y87H, Q89R, V96P
B13: ABT1-95-173 (other)
VL: B7 VL with T22S, Q27R, Y87H, Q89R
B14: ABT1-95-178 (other)
VL: B7 VL with S51V, Y87H, Q89R
B15: ABT1-95-184 (other)
VL: B7 VL with Q27R, P28T, I29P, S51R, Y87H, Q89L, V96P
B16: ABT1-95-176 (other)
VL: B7 VL with Q27R, S50A, S51V, Y87H, Q89R
B17: ABT1-95-44 (other)
VL: B7 VL with Q27S, Y87H
notes: VK dAb
B18: ABT1-95-41 (other)
VL: B7 VL with Q27Y, Y87H
notes: VK dAb
B19: ABT1-95-117 (other)
VL: B7 VL with T85M, Y87H, Q89V
notes: VK dAb
B20: ABT1-95-26 (other)
VL: B7 VL with Q89G
notes: VK dAb
B21: ABT1-95-122 (other)
VL: B7 VL with T72I, Y87H
notes: VK dAb
B22: ABT1-95-33 (other)
VL: B7 VL with Q89R
notes: VK dAb
B23: ABT1-95-30 (other)
VL: B7 VL with G91S
notes: VK dAb
B24: ABT1-95-29 (other)
VL: B7 VL with R93Q
notes: VK dAb
B25: ABT1-95-132 (other)
VL: B7 VL with K42I, L78P, Y87H
notes: VK dAb
B26: ABT1-95-118 (other)
VL: B7 VL with Y87H, Q89S
notes: VK dAb
B27: ABT1-95-80 (other)
VL: B7 VL with S51V, Y87H
notes: VK dAb
B28: ABT1-95-22 (other)
VL: B7 VL with R93H
notes: VK dAb
B29: ABT1-95-32 (other)
VL: B7 VL with R93S
notes: VK dAb
B30: ABT1-95-102 (other)
VL: B7 VL with E55Q, Y87H
notes: VK dAb
B31: ABT1-95-31 (other)
VL: B7 VL with R93L
notes: VK dAb
B32: ABT1-95-34 (other)
VL: B7 VL with Q27A, Y87H
notes: VK dAb
B33: ABT1-95-92 (other)
VL: B7 VL with Y53T, Y87H
notes: VK dAb
B34: ABT1-95-24 (other)
VL: B7 VL with Q89C
notes: VK dAb
B35: ABT1-95-23 (other)
VL: B7 VL with I29T
notes: VK dAb
B36: ABT1-95-115 (other)
VL: B7 VL with Y87H, Q89L
notes: VK dAb
B37: ABT1-95-107 (other)
VL: B7 VL with P56H, Y87H
notes: VK dAb
B38: ABT1-95-28 (other)
VL: B7 VL with R93G
notes: VK dAb
B39: ABT1-95-139 (other)
VL: B7 VL with P28Q, Y87H
notes: VK dAb
B40: ABT1-95-85 (other)
VL: B7 VL with S26G, S51G, Y87H, Q89L
notes: VK dAb
B41: ABT1-95-116 (other)
VL: B7 VL with Y87H, Q89V
notes: VK dAb
B42: ABT1-95-67 (other)
VL: B7 VL with S50A, Y87H
notes: VK dAb
B43: ABT1-95-131 (other)
VL: B7 VL with I29T, Y87H
notes: VK dAb
B44: ABT1-95-27 (other)
VL: B7 VL with G41R, Q89A
notes: VK dAb
B45: ABT1-95-64 (other)
VL: B7 VL with I48V, Y49H, Y87H, I106V
notes: VK dAb
B46: ABT1-95-121 (other)
VL: B7 VL with Y87H, R93E
notes: VK dAb
B47: ABT1-95-47 (other)
VL: B7 VL with Q27M, Y87H
notes: VK dAb
B48: ABT1-95-25 (other)
VL: B7 VL with Q89D
notes: VK dAb
B49: ABT1-122-750x (other)
VL: DIQMTQSPSSLSASVGDRVAITCSASQHIWTEISWYQQKPGKAPKLLIYGSASRQKGVPSRFSGSGSGTDFTLTISSLQPEDFATYYCKQFAYFPNTFGQGTKVEIKR
B50: ABT1-149 (other)
VL: DIQMTQSPSSLSASVGDRVTITCRASQSISSYLNWYQQKPGKAPKLLIGGLSGLQSGVPSRFSGSGSGTDFTLTISSLQPEDFATYYCMQWWRWPSTFGQGTKVEIKRAAAEQKLISEED
B51: ABT1-97 (other)
VH: EVQLLESGGGLVQPGGSLRLSCAASGFTFWEYDMYWVRQAPGKGLEWVSRISGSGRYTYYADSVKGRFTISRDNSKNTLYLQMNSLRAEDTAVYYCAKRSLTRPSQFDYWGQGTLVTVSS

These binders were tested against T1, human IL-1α (assay: cell-based or functional assay).

ND50	Binder
500 nM	B1
20 nM	B2
10 nM	B3
2 nM	B4
> 10 nM	B5
3 nM	B6
0.61 nM	B7
0.017 nM	B8
0.011 nM	B9
0.016 nM	B10
0.024 nM	B11
0.022 nM	B12
0.151 nM	B13
0.004 nM	B14
0.006 nM	B15
0.027 nM	B16
0.15 nM	B17
0.15 nM	B18
0.1 nM	B19
0.71 nM	B20
0.116 nM	B21
1 nM	B22
> 10 nM	B23
1 nM	B24
2 nM	B25
0.122 nM	B26

ND50	Binder
0.008 nM	B27
1 nM	B28
1.2 nM	B29
0.184 nM	B30
3.3 nM	B31
1 nM	B32
0.5 nM	B33
0.27 nM	B34
0.5 nM	B35
0.23 nM	B36
0.5 nM	B37
2 nM	B38
0.1 nM	B39
0.713 nM	B40
0.168 nM	B41
0.044 nM	B42
0.085 nM	B43
1 nM	B44
0.438 nM	B45
0.1 nM	B46
0.139 nM	B47
0.43 nM	B48
0.713 nM	B49
100 nM	B50
3000 nM	B51

These binders were tested against T1, human IL-1α (assay: Table 62 IC50; RBA presumed).

IC50	Binder
500 pM	B7
< 100 pM	B17
< 100 pM	B18
200 pM	B19
500 pM	B20
100 pM	B21
500 pM	B22
> 1000 pM	B23
> 500 pM	B24
100 pM	B25
200 pM	B26
300 pM	B27
500 pM	B28
> 500 pM	B29
100 pM	B30
> 500 pM	B31
100 pM	B32

IC50	Binder
< 100 pM	B33
500 pM	B34
500 pM	B35
200 pM	B36
100 pM	B37
> 500 pM	B38
200 pM	B39
200 pM	B40
200 pM	B41
100 pM	B42
100 pM	B43
500 pM	B44
3000 pM	B45
200 pM	B46
100 pM	B47
500 pM	B48
